Test results from IntAct's records for PubMed 22164283.

Target: tbxt_mouse Tbxt (UniProt P20293)
Sequence (P20293 whole entry): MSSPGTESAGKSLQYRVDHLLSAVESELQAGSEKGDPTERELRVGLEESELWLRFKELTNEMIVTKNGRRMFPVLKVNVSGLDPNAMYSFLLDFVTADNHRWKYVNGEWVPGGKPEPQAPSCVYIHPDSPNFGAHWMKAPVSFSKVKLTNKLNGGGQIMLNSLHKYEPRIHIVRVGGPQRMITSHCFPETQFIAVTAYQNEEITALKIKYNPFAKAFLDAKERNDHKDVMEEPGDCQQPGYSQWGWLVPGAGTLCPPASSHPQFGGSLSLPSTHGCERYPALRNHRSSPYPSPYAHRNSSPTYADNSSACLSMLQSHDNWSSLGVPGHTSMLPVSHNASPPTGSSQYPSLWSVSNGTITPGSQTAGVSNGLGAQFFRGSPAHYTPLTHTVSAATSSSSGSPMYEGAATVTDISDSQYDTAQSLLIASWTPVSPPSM

Sequence of Homeobox protein MIXL1 (Mus musculus), Q9WUI0 I113R (Q9WUI0 whole entry I113R): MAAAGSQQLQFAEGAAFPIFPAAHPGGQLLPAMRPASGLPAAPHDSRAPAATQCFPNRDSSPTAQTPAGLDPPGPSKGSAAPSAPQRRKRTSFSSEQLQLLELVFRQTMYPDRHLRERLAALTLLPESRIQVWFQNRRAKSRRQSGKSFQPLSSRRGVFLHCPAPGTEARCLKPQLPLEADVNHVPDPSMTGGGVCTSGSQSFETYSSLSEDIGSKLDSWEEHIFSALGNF
Sequence of Homeobox protein MIXL1 (Mus musculus), Q9WUI0 P126I (Q9WUI0 whole entry P126I): as the sequence (Q9WUI0 whole entry I113R) above, with R113I, P126I counted along it
Sequence of Homeobox protein MIXL1 (Mus musculus), Q9WUI0 V132A (Q9WUI0 whole entry V132A): as the sequence (Q9WUI0 whole entry I113R) above, with R113I, V132A counted along it
Sequence of Homeobox protein MIXL1 (Mus musculus), Q9WUI0 R143I (Q9WUI0 whole entry R143I): as the sequence (Q9WUI0 whole entry I113R) above, with R113I, R143I counted along it

Substance | effect of a mutation on the interaction
Homeobox protein MIXL1 (Mus musculus), Q9WUI0 V132A | with no effect
Homeobox protein MIXL1 (Mus musculus), Q9WUI0 I113R | with no effect
Homeobox protein MIXL1 (Mus musculus), Q9WUI0 P126I | decreasing interaction strength
Homeobox protein MIXL1 (Mus musculus), Q9WUI0 R143I | with no effect
